Assay [1] deals with CXCL12γ protein, chemically synthesized (γ-wt) (mouse). The assay can be described thus: SDS-PAGE and immunoblot; chemically synthesized chemokines separated by SDS-PAGE and probed with the K15C mAb; dimeric forms seen.
The target in assay [2] is CXCR7 on CXCR7-transduced A0.01 cells (UniProt P25106). Kind of assay: flow cytometry on cells; competition: 1 nM α-biot on CXCR7-transduced A0.01 cells with increasing concentrations of untagged chemokine, washed, labelled with 1 µg/ml streptavidin-PE; normalised to binding without competitor; one-site non-linear regression.
Assay [3] deals with α-wt C9 (CXCL12α with C-terminal bovine rhodopsin C9 tag) (mouse) (UniProt P40224). Kind of assay: SDS-PAGE and immunoblot; lysates of SFV-infected BHK cells separated by SDS-PAGE and probed with the K15C mAb; dimeric forms seen.
Assay [4] concerns the target γ-wt C9 (CXCL12γ with C-terminal bovine rhodopsin C9 tag) (mouse). The description is as above.

UniProt P25106, sequence (P25106 whole entry): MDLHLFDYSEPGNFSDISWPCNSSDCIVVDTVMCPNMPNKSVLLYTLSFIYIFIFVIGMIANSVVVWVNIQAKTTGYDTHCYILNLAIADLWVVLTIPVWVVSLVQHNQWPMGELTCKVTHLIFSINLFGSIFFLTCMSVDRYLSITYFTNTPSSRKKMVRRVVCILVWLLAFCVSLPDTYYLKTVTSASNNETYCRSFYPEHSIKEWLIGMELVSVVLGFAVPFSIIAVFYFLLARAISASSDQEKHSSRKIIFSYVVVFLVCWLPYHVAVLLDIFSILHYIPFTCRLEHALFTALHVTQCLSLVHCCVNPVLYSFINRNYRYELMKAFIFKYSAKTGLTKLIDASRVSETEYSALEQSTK

As for “CXCL12γ protein, chemically synthesized (γ-wt) (ligand)”, in assay [1], the stoichiometry N came to 2. For the same substance, the concentration for half-maximal inhibition (IC50) in assay [2] was determined as 10.4 nM.
Substance “α-wt C9 (CXCL12α with C-terminal bovine rhodopsin C9 tag) (from UniProt P40224-2 22-93) (ligand)” gave a stoichiometry N in assay [3] of 2.
Regarding “γ-wt C9 (CXCL12γ with C-terminal bovine rhodopsin C9 tag) (ligand)”, the stoichiometry N in assay [4] amounted to 2.

The record behind these values is publication PMC2481281.
